Concentration for 50% rescue (IC50) from inhibition of INA6 cell proliferation induced by 10 nM Activin A, WST-1; competes with Activin A for the type II receptors data for two molecules are collected here from publication PMC5425150.

For the test, the target named is type II receptors on the cell surface of INA6 cells (human (endogenous in INA6)).

Consider BMP2-L51PL100KN102D (ligand), for which the concentration for 50% rescue (IC50) from inhibition of INA6 cell proliferation induced by 10 nM Activin A, WST-1; competes with Activin A for the type II receptors came to 62.5 nM.

B1: Recombinant human BMP2 (wildtype) (ligand)
chain: QAKHKQRKRLKSSCKRHPLYVDFSDVGWNDWIVAPPGYHAFYCHGECPFPLADHLNSTNHAIVQTLVNSVNSKIPKACCVPTELSAISMLYLDENEKVVLKNYQDMVVEGCGCR
B1 came in with a concentration for 50% rescue (IC50) from inhibition of INA6 cell proliferation induced by 10 nM Activin A, WST-1; competes with Activin A for the type II receptors of 250 nM.
